# Assay results reported in the nanobody polyreactivity screen of Harvey et al. (2022).
# Assay: yeast display, Sf9 membrane polyspecificity reagent, FACS + sequencing; frameworks hold sequencing errors
# Method in brief: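 Using colony PCR, genes from sorted yeast display clones were amplified, then sequenced on MiSeq at 2 × 250 and filtered by CDR length. The clones had been stained with 10% biotinylated, detergent-solubilized Sf9 membrane reagent for 1 hour at 4 °C and sorted by FACS into low and high (top ~1%) gates on anti-HA and streptavidin fluorescence. Polyreactivity labels come from the gate of origin.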
row,Sequence,polyreactivity (PSR sort gate)
1,QVQLVESGGGLVQAGGSLRLSCAASGYIFYTYAMGWYRQAPGKERELVAGINRGDSTNYADSVKGRFTISRDNAKNTVYLQMNSLKPEDTAVYYCNARQRTYYRTHRIRHKGNGYWGQGTQVTVSS,low polyreactivity
2,QVQLVESGGGLVQAGGSLRLSCAASGYILFAYAMGWYRQAPGKERELVATITTSGGITYYADSVKGRFTISRDNAKNTVYLQMNSLKPDDTAVYYCAAAEGCGLVTYDYWGQGTQVTVSS,low polyreactivity
3,QVQLVESGGGLVQAGGSLRLSCAASGYILRPYSKVWYRQSPGKERELLASISRSSGNTFYADSVKGRFTISRDNAKNSVYLEMNSLKPDDSAVYYCAKDRSQRDLVYFPRVIYRMDYWGQGTQVNVSS,high polyreactivity
4,QVQLVESGGGLVQAGGSLRLSCAASGYILRRNAMGWYRKAPGKERELVARINSSGGSTYYADSVKGRFTISRDNAKNTVYLQMNSLKPEDTAVYYCAKSYYRGRDYWGQGTQVTVSS,high polyreactivity
5,QVQLVESGGGLVQAGGSLRLSCAASGYILRSHAMGWYRQAPGKEWEFVAAITYSGGSTYYADSVKGRFTISRDNAKNTVYLQLNSLKPEVTAVYYCSKTTRYPRGYGYWGQGTQVTVSS,low polyreactivity
6,QVQLVESGGGLVQAGGSLRLSCAASGYILYINTMGWYRQAPGKERELVAAITYSGASTYYADSVKGRFTISRDNAKNTVYLQMNSLKPEDNGVYYCAADGYYGGYNYWGQGTQVTVSS,low polyreactivity
7,QVQLVESGGGLVQAGGSLRLSCAASGYIPYCYAMGWYRQAPGKERELVAAISSGGNTYYADSVKGRFTISRDNAKNTVYLQMNSLKPEDTAVYYCAAEFRNYIFHYKYNYWGQGTQVTVSS,high polyreactivity
8,QVQLVESGGGLVQAGGSLRLSCAASGYISGVYPMGWYRQAPGKERELVAAITKRGGNTYYADSVKGRFTISRDNAKNTVYLQMNSLKAEDTAVYYCAKKTAGHPWGPIYDYWGQGTQVTVSS,high polyreactivity
9,QVQLVESGGGLVQAGGSLRLSCAASGYIVRNAMGWYRQAPGKERQLVAAISRRGGSTYYADSVKGRFTISRDNAKNTVYLQLNSLKPEDTAVYYCAKDKVIPSFDADYYDWGQGTQVTVSS,high polyreactivity
10,QVQLVESGGGLVQAGGSLRLSCAASGYIYIRNAMGWYRQAPGKERELVAAISCTGGSTYYADSVKGRFTISRDNAKNTVYLQMKILKPEDTAVYYCNKYYRAWLLWDYGYWGQGTQVTVSS,high polyreactivity
11,QVQLVESGGGLVQAGGSLRLSCAASGYIYLPYAMGWYRQAPGKERELVAAIRWSGGSTYYADSVKGRFTISRDNAKNTVYLQMNSLKPEDTAVYYCAAYYVARDRRYPKAYSYEYWGQGTQVTVSS,high polyreactivity
12,QVQLVESGGGLVQAGGSLRLSCAASGYIYNGYAMGWYRQAPGKERELVAAIDWSGGSTYYADSVKGRFTISRDNAKNTVYLQMNSLKPEDTAVYYCNASEWLSASYYWGQGTQVTVSS,high polyreactivity
13,QVQLVESGGGLVQAGGSLRLSCAASGYLRVNAMGWYRQAPGTERELVAAITGNGGRTYYADSVKGRFTISRDNAKNTVYLQMNSLKPEDTAVYYCNIAGSSRSWFGSYYWGQGTQVTVSS,high polyreactivity
14,QVQLVESGGGLVQAGGSLRLSCAASGYNFKPNTMGWYRQAPGKERELVAAITRGGRTKYADSVKGRFTISRDNAKNTVYLQMNSLKPEDTAVYYCATRVHKSTDGYDYWGQGTQVTVSS,high polyreactivity
15,QVQLVESGGGLVQAGGSLRLSCAASGYNFKRYTMGWYRQAPGKERELVAAISGGDSTNYADSVKGRFTISRDNAKNTVYLHMNSLKPEDTAVYYCAAGGLTLWHGYILGYWGQGTQVTVSS,low polyreactivity
16,QVQLVESGGGLVQAGGSLRLSCAASGYNFSIYAMGWYRQAPGKERELVAAIRSDARTYYADSVKGRFTISRDNAKNTVYLQMNSLKPEDTAVYYCAADQYSYAANRPFYRGYYWGQGTQVTVSS,high polyreactivity
